# Measured values taken from patent US6716960B2, “Mch3, a novel apoptotic protease, nucleic acids encoding and methods of use” (Idun Pharmaceuticals, Inc., priority 1995, dated 2004).
# Where two headings read alike, the source gives them in different places.
# T1: Mch3α (Homo sapiens, UniProt P55210)
# T1 construct: This assay employs Mch3 polypeptide expressed in an active, processed form recombinantly in E. coli; becomes active following proteolytic cleavage into two subunits of approximately 17 kD (p17) and 12 kD (p12); GST (N, cleaved yes); made in house; host or cells: E. coli (DH5α), pGEX-2T; bacterial lysates
# T1 sequence (P55210 24-198 limits assumed): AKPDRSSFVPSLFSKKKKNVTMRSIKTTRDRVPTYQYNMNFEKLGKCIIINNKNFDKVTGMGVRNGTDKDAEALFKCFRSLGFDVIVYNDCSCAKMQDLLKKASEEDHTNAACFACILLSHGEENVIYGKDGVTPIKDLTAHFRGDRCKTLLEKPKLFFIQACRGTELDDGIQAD
# T1 sequence (P55210 207-303 limits assumed): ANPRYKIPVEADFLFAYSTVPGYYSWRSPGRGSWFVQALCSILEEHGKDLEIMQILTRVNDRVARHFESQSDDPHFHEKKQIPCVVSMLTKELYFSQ
# T2: CPP32 (Homo sapiens, UniProt P42574)
# T2 construct: CPP32 is cleaved at Asp28 and Asp175 to generate two polypeptides of molecular masses of 17 kDa (p17) and 12 kDa (p12); GST (N, cleaved yes); made in house; host or cells: E. coli; bacterial lysates
# T2 sequence (P42574 29-175 limits assumed): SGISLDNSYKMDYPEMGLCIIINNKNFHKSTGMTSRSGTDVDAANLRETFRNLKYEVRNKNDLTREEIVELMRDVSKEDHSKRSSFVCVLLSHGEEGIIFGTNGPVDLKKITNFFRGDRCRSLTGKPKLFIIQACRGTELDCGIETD
# T2 sequence (P42574 176-277 limits assumed): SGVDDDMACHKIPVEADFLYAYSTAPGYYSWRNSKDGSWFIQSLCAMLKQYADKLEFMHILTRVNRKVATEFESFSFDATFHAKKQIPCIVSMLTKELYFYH
# How the values were obtained:
# Mch3α = biological target: T1, Mch3α; assay: Continuous fluorometric assay of recombinant Mch3α with DEVD-AMC substrate; format: biochemical
# Method: The kinetic properties of the bacterially expressed recombinant Mch3α and CPP32 were determined using the tetrapeptide substate DEVD-AMC in a continuous fluorometric assay. The DEVD-AMC substrate is the poly(ADP-ribose)polymerase (PARP) cleavage site P1-P4 tetrapeptide (Nicholson et al., Nature 376:37-43 (1995)). Briefly, activity of Mch3α and CPP32 was measured using bacterial lysates in ICE buffer (25 mM HEPES, 1 mM EDTA, 5 mM DTT, 0.10% CHAPS, 10% sucrose, pH 7.5) at room temperature (24-25° C.).
# CPP32 [1] = biological target: T2, CPP32; assay: Continuous fluorometric assay of recombinant CPP32 with DEVD-AMC substrate; format: biochemical; conditions: for Km: recombinant CPP32, bacterial lysate, ICE buffer pH 7.5, 24-25° C., substrate = label
# CPP32 [2] = biological target: T2, CPP32; conditions: purified human CPP32, reported by Nicholson et al.; cited from earlier work
# Sf9 cells = assay: Induction of apoptosis in Sf9 cells infected with recombinant baculoviruses; conditions: for Induction of apoptosis: expressed separately in Sf9 cells
molecule,measurement,setting,value
"CC(=O)N[C@@H](CC(=O)O)C(=O)N[C@@H](CCC(=O)O)C(=O)N[C@H](C(=O)N[C@H](C=O)CC(=O)O)C(C)C [DEVDaldehyde, DEVD-CHO]",Ki,Mch3α,0.0018 µM
"CC(=O)N[C@@H](Cc1ccc(O)cc1)C(=O)N[C@H](C(=O)N[C@@H](C)C(=O)N[C@H](C=O)CC(=O)O)C(C)C [YVADaldehyde, YVAD-CHO]",Ki,CPP32 [1],8.5 µM
same,Ki,Mch3α,> 10 µM
DEVD-AMC [DEVDamc],Km,CPP32 [1],13 µM
same,Km,CPP32 [2],9.7 ± 1 µM
same,Km,"Mch3α; bacterial lysate, ICE buffer pH 7.5, 24-25° C., substrate = label",51 µM
YVADamc: YVAD tetrapeptide amc substrate listed in Table I,Km,CPP32 [1],> 500 µM
"Mch3α: full length apoptotic cysteine protease, 303 amino acids (SEQ ID NO: 2), expressed from recombinant baculovirus (protein) MADDQGCIEEQGVEDSANEDSVDAKPDRSSFVPSLFSKKKKNVTMRSIKTTRDRVPTYQYNMNFEKLGKCIIINNKNFDKVTGMGVRNGTDKDAEALFKCFRSLGFDVIVYNDCSCAKMQDLLKKASEEDHTNAACFACILLSHGEENVIYGKDGVTPIKDLTAHFRGDRCKTLLEKPKLFFIQACRGTELDDGIQADSGPINDTDANPRYKIPVEADFLFAYSTVPGYYSWRSPGRGSWFVQALCSILEEHGKDLEIMQILTRVNDRVARHFESQSDDPHFHEKKQIPCVVSMLTKELYFSQ",Cells undergoing apoptosis,"Sf9 cells; expression in Sf9 cells, 42-48 h postinfection",approximately 50%
truncated Mch3α (amino acids 199-303): truncated Mch3α that encodes only the p12 subunit (protein) SGPINDTDANPRYKIPVEADFLFAYSTVPGYYSWRSPGRGSWFVQALCSILEEHGKDLEIMQILTRVNDRVARHFESQSDDPHFHEKKQIPCVVSMLTKELYFSQ,Induction of apoptosis,Sf9 cells,unable to induce apoptosis
truncated Mch3α (amino acids 1-198): truncated Mch3α that encodes only the p20 subunit (protein) MADDQGCIEEQGVEDSANEDSVDAKPDRSSFVPSLFSKKKKNVTMRSIKTTRDRVPTYQYNMNFEKLGKCIIINNKNFDKVTGMGVRNGTDKDAEALFKCFRSLGFDVIVYNDCSCAKMQDLLKKASEEDHTNAACFACILLSHGEENVIYGKDGVTPIKDLTAHFRGDRCKTLLEKPKLFFIQACRGTELDDGIQAD,Induction of apoptosis,Sf9 cells,unable to induce apoptosis
